pKd: −log10 of the molar value.
What was measured:
[1] = tested on: MBP-ERS2.5W WT (Homo sapiens); assay: fluorescence anisotropy; settings: unmodified in vitro transcript; FA: 5 nM labeled tRNA, 25 mM Tris-HCl pH 8, 50 mM NaCl, 1 mM MgCl2, room temperature, 30 min
[2] = tested on: MBP-ERSRC WT (Homo sapiens); assay: fluorescence anisotropy; settings: unmodified in vitro transcript; FA: 5 nM labeled tRNA, 25 mM Tris-HCl pH 8, 50 mM NaCl, 1 mM MgCl2, room temperature, 30 min

**Q.** With tRNAGlu(TTC) as the substance, how does the pKd [1] read?
**A.** 7.08

**Q.** What about the pKd [2] of the same substance?
**A.** 6.48

From PMC8511952
